Measurements from patent publication US20090297520A1.
Where two headings read alike, the source gives them in different places. Ends that are not written are not given here.

Assays:
Assay in all cases: cell-based or functional assay
human Kv1.3 (human) [1] = target: human Kv1.3 (human) (UniProt P22001)
human Kv1.1 (human) = human Kv1.1 (human) (UniProt Q09470)
human Kv1.3 (human) [2] = target: human Kv1.3 (human) (UniProt P22001); remark: listed apart in the source

Chain of human Kv1.1 (human) (Q09470 whole entry): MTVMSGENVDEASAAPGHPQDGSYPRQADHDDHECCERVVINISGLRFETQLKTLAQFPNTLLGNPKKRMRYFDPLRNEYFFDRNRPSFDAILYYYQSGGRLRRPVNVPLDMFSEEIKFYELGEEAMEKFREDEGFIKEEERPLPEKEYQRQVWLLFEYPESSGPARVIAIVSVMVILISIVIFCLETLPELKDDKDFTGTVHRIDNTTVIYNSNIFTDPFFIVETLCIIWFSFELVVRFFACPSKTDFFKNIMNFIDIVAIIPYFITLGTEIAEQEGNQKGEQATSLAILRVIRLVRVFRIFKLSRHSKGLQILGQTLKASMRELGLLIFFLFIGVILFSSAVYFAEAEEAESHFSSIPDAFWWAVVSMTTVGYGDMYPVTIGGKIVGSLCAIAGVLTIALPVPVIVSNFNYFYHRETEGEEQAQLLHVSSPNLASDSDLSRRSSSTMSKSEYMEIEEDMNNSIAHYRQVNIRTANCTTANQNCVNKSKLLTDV
Chain of human Kv1.3 (human) (P22001 whole entry): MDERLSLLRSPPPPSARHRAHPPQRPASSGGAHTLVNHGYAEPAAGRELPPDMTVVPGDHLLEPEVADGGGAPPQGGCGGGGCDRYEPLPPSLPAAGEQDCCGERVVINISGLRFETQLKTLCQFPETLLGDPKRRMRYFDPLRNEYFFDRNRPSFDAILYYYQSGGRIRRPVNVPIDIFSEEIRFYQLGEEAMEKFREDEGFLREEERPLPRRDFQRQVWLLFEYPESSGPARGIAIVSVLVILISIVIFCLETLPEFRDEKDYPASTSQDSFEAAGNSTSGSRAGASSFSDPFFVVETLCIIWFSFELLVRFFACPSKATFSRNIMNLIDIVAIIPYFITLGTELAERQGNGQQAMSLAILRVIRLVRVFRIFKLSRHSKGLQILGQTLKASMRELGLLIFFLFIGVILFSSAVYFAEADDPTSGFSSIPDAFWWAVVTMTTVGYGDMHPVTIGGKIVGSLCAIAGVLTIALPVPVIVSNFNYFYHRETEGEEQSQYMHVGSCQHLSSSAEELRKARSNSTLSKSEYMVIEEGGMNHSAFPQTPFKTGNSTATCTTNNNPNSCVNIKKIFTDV

## 20k PEG-OSK1[Ala29, 1Nal34] (peptide)
Human Kv1.3 (human) [1]
  WB/IFNg (IC50, nM), human whole blood: 0.081 nM
  WB/IL-2 (IC50, nM), human whole blood: 0.049 nM

## 20k PEG-ShK (peptide)
Human Kv1.3 (human) [1]
  WB/IFNg (IC50, nM), human whole blood: 0.065 nM
  WB/IL-2 (IC50, nM), human whole blood: 0.046 nM

## E. coli-derived Fc-L-OSK1 (Fc fusion)
Human Kv1.3 (human) [1]
  Kv1.3 IC50 by WCVC (nM), whole cell patch clamp on HEK293/Kv1.3 cells: 3.2 nM

## E. coli-derived Fc-L-ShK[1-35] (Fc fusion)
Human Kv1.3 (human) [1]
  Kv1.3 IC50 by WCVC (nM), whole cell patch clamp on HEK293/Kv1.3 cells: 1.4 nM

## E. coli-derived Fc-L-ShK[2-35] (Fc fusion)
Human Kv1.3 (human) [1]
  Kv1.3 IC50 by IWQ (nM), IonWorks planar patch clamp on CHO/Kv1.3 cells: 2.8 nM
  Kv1.3 IC50 by WCVC (nM), whole cell patch clamp on HEK293/Kv1.3 cells: 1.3 nM

## E. coli-derived ShK[2-35]-L-Fc (Fc fusion)
Human Kv1.3 (human) [1]
  Kv1.3 IC50 by IWQ (nM), IonWorks planar patch clamp on CHO/Kv1.3 cells: 4.9 nM

## E. coli-derived Shk[1-35]-L-Fc (Fc fusion)
Human Kv1.3 (human) [1]
  Kv1.3 IC50 by IWQ (nM), IonWorks planar patch clamp on CHO/Kv1.3 cells: 2.4 nM

## Fc-L5-ShK[2-35] (CHO-derived, bivalent dimeric) (Fc fusion)
Human Kv1.3 (human) [1]
  IC50, block of outward potassium current, whole cell patch clamp: 100 pM

## Fc-L10-OSK1 (Fc fusion)
Human Kv1.1 (human)
  hKv1.1: IC50 [pM], whole cell patch clamp: 41600 pM

## Fc-L10-ShK[2-35] (CHO-derived, bivalent dimeric) (Fc fusion)
Human Kv1.3 (human) [1]
  IC50, block of outward potassium current, whole cell patch clamp: 115 pM

## Fc-L25-ShK[2-35] (CHO-derived, bivalent dimeric) (Fc fusion)
Human Kv1.3 (human) [1]
  IC50, whole cell patch clamp on HEK293/Kv1.3 cells: 150 pM

## GGGGS-Osk1 (peptide)
Human Kv1.3 (human) [1]
  WB/IFNg (IC50, nM), human whole blood: 2.2 nM
  WB/IL-2 (IC50, nM), human whole blood: 1.36 nM

## OSK1 (synthetic Osk1 toxin peptide)
Human Kv1.3 (human) [1]
  IC50, block of outward potassium current, whole cell patch clamp: 39 pM

## OSK1-K16, D20 (peptide)
Human Kv1.3 (human) [1]
  WB/IFNg (IC50, nM), human whole blood: 1.32 nM
  WB/IL-2 (IC50, nM), human whole blood: 1.58 nM

## PEG-Fc-L10-OSK1, pool 2 (Fc fusion)
Human Kv1.3 (human) [1]
  IC50 Sustained (nM), pool 2: 0.332 nM

## PEG-Fc-L10-OSK1, pool 3 (Fc fusion)
Human Kv1.3 (human) [1]
  IC50 Sustained (nM), pool 3: 0.256 nM

## PEG-Fc-L10-SHK(2-35), pool 2 (Fc fusion)
Human Kv1.3 (human) [1]
  IC50 Sustained (nM), pool 2: 0.158 nM

## PEG-Fc-L10-SHK(2-35), pool 3 (Fc fusion)
Human Kv1.3 (human) [1]
  IC50 Sustained (nM), pool 3: 0.175 nM

## PEG-OSK1 (peptide)
Human Kv1.3 (human) [1]
  peak IC50, whole cell patch clamp: 1280 pM

## Synthetic OSK1 (peptide)
Human Kv1.1 (human)
  hKv1.1/hKv1.3 (ratio of IC50s, reference hKv1.3): 4
  hKv1.1: IC50 [pM], whole cell patch clamp: 160 pM
Human Kv1.3 (human) [1]
  hKv1.3: IC50 [pM], whole cell patch clamp: 39 pM

## native OSK1 (peptide)
Human Kv1.1 (human)
  Kv1.1 (IC50, pM), whole cell patch clamp ePhys: 202 pM
Human Kv1.3 (human) [1]
  Kv1.3 (IC50, pM), whole cell patch clamp ePhys: 39 pM
  Kv1.3 Selectivity (=Kv1.1/Kv.3 IC50): 5 fold

## SCIDTIPKSRCTAFQCKHSMKYRLSFCRKTCGTC (not fully specified; ends and bridges not checked) [ShK[2-35] (synthetic peptide analog)]
Human Kv1.3 (human) [2]
  IC50, block of outward potassium current, whole cell patch clamp: 49 pM

## RSCIDTIPKSRCTAFQCKHSMKYRLSFCRKTCGTC (not fully specified (N-terminus); ends and bridges not checked) [20K PEG-ShK[1-35]]
Human Kv1.3 (human) [2]
  peak IC50, whole cell patch clamp: 169 pM
